# Patent US11306137B2, “Antibody binding agents that bind Acinetobactor and uses thereof” (priority 2015, dated 2022)
# “Also recorded” adds a separate entry of the source.
# B1: C8: mouse IgG1-kappa monoclonal antibody from hybridoma 9.1C8 (ATCC PTA-122177); light chain SEQ ID NO:2, heavy chain SEQ ID NO:3 (antibody, listed as Mus musculus, V domains shown)
# VH: EVQLQQSGPELVKPGASVKISCKASGYSFTGYTMNWVKQSHGKSLEWIGRINPYNGDSFYNQKFKGKATLTVDKSSNIAHMEFLSLTSEDSAVYYCGRSGDGPWFAYWGQGTLVTVSA
# VL: LPLSLPVSLGDQASISCRSSQSIVHNNGNTYLEWYLQKPGQSPKLLIYKVSNRFSGVPDRFSGSGSGTDFTLKISRVEAEDLGVYYCFQGSHVPLTFGAGTKLEIKGSRS
# Assays:
# A. baumannii HUMC1 [1] = test: Oropharyngeal aspiration pneumonia model, survival; format: in vivo, mice; conditions: for survival: oropharyngeal aspiration of HUMC1
# Method: (§1) To determine if C8 could treat, inhibit and/or prevent A. baumannii induced sepsis, mice were infected i.v. via the tail-vein with 2×10^7 hyper-virulent A. baumannii HUMC1 and were treated once i.v. with either protein-G purified C8 mAb (approximately 10 or 20 μg doses) or an isotype-control antibody in a saline buffer. […] In a second experiment, mice were similarly infected and the C8 MAb was administered once i.v. in saline buffer at a low (5 μg) and very low (0.5 μg) dose.
# (§2) Male C3HeB/Fe mice (Jackson Labs) between the ages of 7-10 wk were used for all experiments. All animal work was conducted following approval by the Institutional Animal Use and Care Committee at the University of Southern California, in compliance with the recommendations in the Guide for the Care and Use of Laboratory Animals of the National Institutes of Health.
# (§3) For the bloodstream infection model, mice were infected intravenously via the tail-vein with designated inocula of A. baumannii isolates. An oropharyngeal model of aspiration pneumonia that recapitulates hospital- or ventilator-associated pneumonia (VAP) relevant to ICU populations was used. In brief, mice were sedated with isoflurane, hung by their maxillary incisors, tongues held to prevent swallowing, and 50 μL of bacterial inocula was placed in the trachea to allow inoculation of the organisms into the lungs by reflexive aspiration.
# A. baumannii HUMC1 [2] = test: Lethal bloodstream (i.v. tail-vein) infection model, survival; format: in vivo, mice; conditions: for protection against infection (survival): 100% lethal inoculum HUMC1 i.v., immediate treatment, FIG. 7A
# A. baumannii HUMC1 [3] = test: Immunogold transmission electron microscopy; format: binding; conditions: 40,000× magnification
# Method: Mid-log-growth A. baumannii cultures were washed twice incubated with primary antibody (200 μg/mL) at room temperature for 30 min, washed three times in PBS, and resuspended in 50 μL PBS. Goat anti-mouse IgG 20 nm Gold Conjugated (TedPella Inc.) was added to each tube at a final concentration of 0.8 μg/mL and incubated at room temperature for 30 min. Bacteria were washed, pelleted, and resuspended in 500 μL of half-strength Karnovsky's Fixative (2% paraformaldehyde and 2.5% gluteraldehyde in 0.1M phosphate buffer) for 2 hours at room temperature. Following incubation, the pellet was dislodged from the bottom of the tube using a bent stick and allowed to sit in fixative overnight. After overnight fixation, fixative was carefully aspirated off and 1 mL of PBS was carefully added to the tube in order to prevent agitation of the pellet. The pellet was then post-fixed in 1% Osmium Tetroxide for 1 hour and stained with 1% Uranyl Acetate overnight. The pellet was then put in 15% BSA for 2 hours and subsequently subjected to another treatment with the half-strength Karnovsky's Fixative to harden. Pellets were washed in water, dehydrated, embedded in Epon, sectioned, and placed on copper grids. Electron Micrographs were taken on a JEOL JEM-2100 Microscope operating at 80 kV.
# A. baumannii HUMC1 [4] = test: Lethal bloodstream (i.v. tail-vein) infection model, survival; format: in vivo, mice; conditions: for protection against infection (survival): 2×10^7 HUMC1 i.v., treated once i.v., FIG. 2; for survival: HUMC1 i.v., FIG. 3 / FIG. 7B
# Method: as §1, §2, §3
# A. baumannii HUMC1 [5] = test: In vitro complement susceptibility (bacterial growth in mouse serum); format: cell-based; conditions: heat-inactivated or complement-active CD-1 mouse serum; FIG. 6A
# Method: Overnight cultures of A. baumannii were subcultured to log-phase, washed in PBS, and resuspended at 1×10^6 CFUs/mL in 3 mL HBSS containing 50% CD-1 mouse serum that had been either heat-inactivated at 57° C. for 30 minutes or not. Tubes were shaken (200 rpm) for 2 hr at 37° C. and bacterial expansion was quantified by serially diluting cultures on TSA plates and counting CFUs.
# A. baumannii HUMC1 [6] = test: Blood bacterial density, plasma cytokines and sepsis biomarkers after i.v. infection
# A. baumannii HUMC1 [7] = test: Confocal immunofluorescence surface binding; conditions: FIG. 5
# Method: To detect surface binding of A. baumannii by purified C8 MAb, mid-log-growth A. baumannii strains were washed twice, resuspended in PBS, stained with NucBlue Reagent (Life Technologies) for 30 min at 37° C., pelleted, and washed again in PBS. Primary antibody, either C8 MAb or Isotype Control IgG1 (R&D Systems, Product #MAB002), was added to 100 μL of bacteria to a final concentration of 100 μg/mL and incubated for 30 min at 37° C. Bacteria were washed twice and resuspended in secondary antibody goat anti-mouse IgG AlexaFluor647 (Life Technologies, Product #A21235) at a final concentration of 2 μg/mL for 20 min at 37° C. After washing twice with PBS, bacteria was resuspended in 50 μL PBS, and 10 μL drops were placed on slides and mounted with cover slips and nail polish. Images were taken using a Spinning Disc Confocal Microscope (Zeiss Axiolmager).
# A. baumannii HUMC1 [8] = test: Lung and blood bacterial burden and lung histopathology in aspiration pneumonia; conditions: 24 hr post-infection
# [9] = system: pili preparations from A. baumannii; test: Western blot of pili preparations (proteinase K or periodate treated); format: binding
# Method: Since it appeared that C8 bound to the pili on the surface of the bacteria, an established protocol was to sheer pili off the bacteria in an attempt to more accurately determine the epitope targeted by C8. To distinguish protein from carbohydrate targets, the pili preparation was divided into three portions: one fraction was treated with proteinase K, one fraction was treated with periodate to degrade carbohydrates, and one fraction was untreated. The pili preparations were run in a western blot and stained with C8 or isotype control MAb.
# [10] = 22 hr post-infection, relative to controls
molecule,measurement,setting,value
B1,"survival, delayed treatment","A. baumannii HUMC1 [1]; lung model, therapy administered 4 hr post-infection",fully protective
same,survival,"A. baumannii HUMC1 [1]; 5 μg i.v., FIG. 4 / FIG. 9A",nearly fully protective; also recorded: markedly improved survival
same,survival,"A. baumannii HUMC1 [1]; 50 μg i.p., FIG. 9B",fully protective
same,protection against infection (survival),A. baumannii HUMC1 [2]; high dose (approximately 150 μg),100%
same,protection against infection (survival),A. baumannii HUMC1 [2]; low dose (approximately 50 μg),100%
same,"survival, delayed treatment","A. baumannii HUMC1 [2]; i.v. infection, treated i.p. (50 μg) at 30 min post-infection, FIG. 7C",rescued from lethal infection
same,"survival, delayed treatment (monotherapy)","A. baumannii HUMC1 [2]; i.v. infection, treated i.p. at 1 hr post-infection, C8 150 μg, colistin 0.0125 mg/kg, FIG. 7D",not all mice survived; also recorded: minimally improved survival; also recorded: too late
same,physical binding site on the bacterial surface by electron microscopy,A. baumannii HUMC1 [3],bound to the pili on the bacterial surface; also recorded: binding to the pili
same,protection against infection (survival),A. baumannii HUMC1 [4]; approximately 10 μg,100%
same,protection against infection (survival),A. baumannii HUMC1 [4]; approximately 20 μg,100%
same,survival,A. baumannii HUMC1 [4]; 0.5 μg once i.v. immediately,markedly improved survival; also recorded: significantly improved survival
same,survival,A. baumannii HUMC1 [4]; 5 μg once i.v. immediately,markedly improved survival; also recorded: fully protective
same,impact on bacterial growth in vitro,A. baumannii HUMC1 [5],minimal impact
same,plasma IL-6,"A. baumannii HUMC1 [6]; 2 hr after infection, FIG. 8B",significantly reduced
same,plasma TNF,"A. baumannii HUMC1 [6]; 2 hr after infection, FIG. 8B",significantly reduced
same,anion gap,A. baumannii HUMC1 [6]; [10],normal
same,base deficit,A. baumannii HUMC1 [6]; [10],normal
same,blood glucose,A. baumannii HUMC1 [6]; [10],normal
same,blood pH,A. baumannii HUMC1 [6]; [10],normal
same,serum bicarbonate,A. baumannii HUMC1 [6]; [10],normal
same,plasma IL-1β,"A. baumannii HUMC1 [6]; 22 hr post-infection, FIG. 8B",virtually undetectable
same,plasma IL-10,"A. baumannii HUMC1 [6]; 22 hr post-infection, FIG. 8B",virtually undetectable
same,blood urea nitrogen (BUN) levels,"A. baumannii HUMC1 [6]; 22 hr post-infection, FIG. 8C",baseline
same,physiology (biomarkers of sepsis),"A. baumannii HUMC1 [6]; between 2 and 24 hours, FIG. 8C",maintained baseline physiology
same,bacterial density in the blood over time,"A. baumannii HUMC1 [6]; over the next 20 h, 5 μg i.v., FIG. 8A",continued to decrease
same,lower bacterial density in the blood than isotype control,"A. baumannii HUMC1 [6]; two hours after treatment, 5 μg i.v., FIG. 8A","1,000 fold"
same,surface binding by immunofluorescent staining,A. baumannii HUMC1 [7],confirmed diffuse surface binding
same,reduction of bacterial burden in the blood vs control mice,"A. baumannii HUMC1 [8]; 50 μg C8, FIG. 9C",7 log
same,reduction of bacterial burden in the lungs vs control mice,"A. baumannii HUMC1 [8]; 50 μg C8, FIG. 9C",2 log
same,lung histology (H&E),A. baumannii HUMC1 [8]; FIG. 9D-E,appeared normal; also recorded: maintained normal lung architecture
same,"western blot signal, periodate treated pili fraction",[9]; periodate treatment (degrades carbohydrates),eliminated completely
same,"western blot signal, proteinase K treated pili fraction",[9]; proteinase K treatment,unchanged
same,"western blot signal, untreated pili fraction",[9]; untreated,large conglomeration at the top of the gel
same,epitope / target on A. baumannii,[9]; western blots and flow binding to a capsule-mutant bacterial strain,binds to capsular polysaccharide
